Measurements reported in IntAct's records for PubMed 23105096.

B1: Ras-related protein Rab-26 (Homo sapiens), Q9ULW5 (parent)
chain: MSRKKTPKSKGASTPAASTLPTANGARPARSGTALSGPDAPPNGPLQPGRPSLGGGVDFYDVAFKVMLVGDSGVGKTCLLVRFKDGAFLAGTFISTVGIDFRNKVLDVDGVKVKLQMWDTAGQERFRSVTHAYYRDAHALLLLYDVTNKASFDNIQAWLTEIHEYAQHDVALMLLGNKVDSAHERVVKREDGEKLAKEYGLPFMETSAKTGLNVDLAFTAIAKELKQRSMKAPSEPRFRLHDYVKREGRGASCCRP

Variants of: B1
Settings: with ada2b_human ADRA2B

effect of a mutation on the interaction	Variant
decreasing interaction strength	T77N
decreasing interaction strength	N177I

Variants of: B1
Settings: with ada2b_human ADRA2B
Remark: another data set of the same source

effect of a mutation on the interaction	Variant
disrupting interaction strength	N177I
